Measured values published in PMC8081927.

Target: Aβ1-42 fibrils (UniProt P05067)
Experiment: flow cytometry on beads; Aβ fibrils (1% biotinylated, 1 μM) immobilised on streptavidin Dynabeads, blocked with 10% milk; antibody dilutions in PBSB with 1% milk, 3 h, 25 °C; detected with goat anti-human Fc AF647; apparent affinity (EC50)

- EC50: 9 nM
B1: crenezumab (variable domains grafted onto an IgG1 scaffold with a human Fc fragment) (antibody, V domains shown)
VH: EVQLVESGGGLVQPGGSLRLSCAASGFTFSSYGMSWVRQAPGKGLELVASINSNGGSTYYPDSVKGRFTISRDNAKNSLYLQMNSLRAEDTAVYYCASGDYWGQGTTVTVSS
VL: DIVMTQSPLSLPVTPGEPASISCRSSQSLVYSNGDTYLHWYLQKPGQSPQLLIYKVSNRFSGVPDRFSGSGSGTDFTLKISRVEAEDVGVYYCSQSTHVPWTFGQGTKVEIK
